The text below walks through data of paper PMC7195491.

Assay [1] has as its target DIP-β (isoformG), extracellular region (Drosophila melanogaster). Kind of assay: SPR; Biacore T100, CM4 chip; DIPs and DIP mutants immobilised by amine coupling, Dprs as analytes; 25 °C; 10 mM Tris-HCl pH 7.2, 150 mM NaCl, 1 mM EDTA, 1 mg/mL BSA, 0.01% Tween-20; duplicate responses fit globally to a 1:1 model; Rmax fixed for KDs > 100 μM, lower limit listed for KDs > 300 μM. On the technique in general: SPR reads the build-up and loss of mass on a sensor chip optically.

Assay [2] addresses DIP-α K10Q S32D {K81Q S133D}, extracellular region (Drosophila melanogaster) (UniProt Q9W4R3). Kind of assay: AUC; sedimentation equilibrium, 25 °C, 10 mM Bis-Tris pH 6.6, 150 mM NaCl, detection at 280 nm; global fit (HeteroAnalysis); dimer to monomers; mean of two independent measurements.
Assay [3] concerns the target DIP-γ (Drosophila melanogaster). Kind of assay: SPR; Biacore T100, CM4 chip; DIPs and DIP mutants immobilised by amine coupling (760-980 RU), Dprs and Dpr mutants as analytes (three-fold dilution series, up to 81 μM, in some cases up to 27 or 9 μM); 25 °C; 10 mM Tris-HCl pH 7.2, 150 mM NaCl, 1 mM EDTA, 1 mg/mL BSA, 0.01% Tween-20; equilibrium fit, 1:1 model; for KDs > 300 μM a lower limit is listed.

For assay [4], the target named is DIP-α (Dpr Interacting Protein alpha), extracellular region (Drosophila melanogaster) (UniProt Q9W4R3). Kind of assay: SPR; Biacore T100, CM4 chip; DIPs and DIP mutants immobilised by amine coupling, Dprs as analytes; 25 °C; 10 mM Tris-HCl pH 7.2, 150 mM NaCl, 1 mM EDTA, 1 mg/mL BSA, 0.01% Tween-20; duplicate responses fit globally to a 1:1 model; Rmax fixed for KDs > 100 μM, lower limit listed for KDs > 300 μM.

Assay [5] deals with DIP-α K10Q G4S, extracellular region (Drosophila melanogaster). Kind of assay: AUC; sedimentation equilibrium, 25 °C, 10 mM Bis-Tris pH 6.6, 150 mM NaCl, UV 280 nm, global fit (HeteroAnalysis); dimer to monomers; two runs (n 1, 2) and their average.
Assay [6] addresses DIP-α K10Q S32D, extracellular region (Drosophila melanogaster). The assay is described as above.
The target of assay [7] is DIP-α (Drosophila melanogaster). Kind of assay: SPR; Biacore T100, CM4 chip; DIPs and DIP mutants immobilised by amine coupling (760-980 RU), Dprs and Dpr mutants as analytes (three-fold dilution series, up to 81 μM, in some cases up to 27 or 9 μM); 25 °C; 10 mM Tris-HCl pH 7.2, 150 mM NaCl, 1 mM EDTA, 1 mg/mL BSA, 0.01% Tween-20; equilibrium fit, 1:1 model; for KDs > 300 μM a lower limit is listed.

For assay [8], the target named is DIP-α K10Q, extracellular region (Drosophila melanogaster). Kind of assay: AUC; sedimentation equilibrium, 25 °C, 10 mM Bis-Tris pH 6.6, 150 mM NaCl, UV 280 nm, global fit (HeteroAnalysis); dimer to monomers; two runs (n 1, 2) and their average.
Assay [9] deals with DIP-γ (Dpr Interacting Protein gamma), extracellular region (Drosophila melanogaster) (UniProt Q9VAR6). Kind of assay: SPR; Biacore T100, CM4 chip; DIPs and DIP mutants immobilised by amine coupling, Dprs as analytes; 25 °C; 10 mM Tris-HCl pH 7.2, 150 mM NaCl, 1 mM EDTA, 1 mg/mL BSA, 0.01% Tween-20; duplicate responses fit globally to a 1:1 model; Rmax fixed for KDs > 100 μM, lower limit listed for KDs > 300 μM.
Sequence of DIP-γ (Dpr Interacting Protein gamma), extracellular region (Drosophila melanogaster) (Q9VAR6 entry or part of it): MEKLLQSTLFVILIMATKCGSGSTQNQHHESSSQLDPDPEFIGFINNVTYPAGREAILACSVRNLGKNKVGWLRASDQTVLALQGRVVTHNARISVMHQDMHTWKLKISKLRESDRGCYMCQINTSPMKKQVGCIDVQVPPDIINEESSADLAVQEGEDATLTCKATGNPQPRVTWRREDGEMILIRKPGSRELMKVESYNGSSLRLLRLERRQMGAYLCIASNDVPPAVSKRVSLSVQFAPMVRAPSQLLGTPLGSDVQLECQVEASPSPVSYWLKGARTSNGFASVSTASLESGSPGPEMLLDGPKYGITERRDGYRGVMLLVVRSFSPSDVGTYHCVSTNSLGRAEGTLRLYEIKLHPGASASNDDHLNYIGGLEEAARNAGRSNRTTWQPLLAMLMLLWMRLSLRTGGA

Assay [10] deals with DIP-α K10Q {K81Q}, extracellular region (Drosophila melanogaster) (UniProt Q9W4R3). Kind of assay: AUC; sedimentation equilibrium, 25 °C, 10 mM Bis-Tris pH 6.6, 150 mM NaCl, detection at 280 nm; global fit (HeteroAnalysis); dimer to monomers; mean of two independent measurements.
In assay [11] the target is DIP-α A7K {A78K}, extracellular region (Drosophila melanogaster) (UniProt Q9W4R3). Kind of assay: SPR; Biacore T100, CM4 chip; DIPs and DIP mutants immobilised by amine coupling, Dprs as analytes; 25 °C; 10 mM Tris-HCl pH 7.2, 150 mM NaCl, 1 mM EDTA, 1 mg/mL BSA, 0.01% Tween-20; duplicate responses fit globally to a 1:1 model; Rmax fixed for KDs > 100 μM, lower limit listed for KDs > 300 μM.

Assay [12] concerns the target DIP-α I16A {I91A}, extracellular region (Drosophila melanogaster) (UniProt Q9W4R3). The assay is described as above.
For assay [13], the target named is DIP-α N19D {N94D}, extracellular region (Drosophila melanogaster) (UniProt Q9W4R3). The assay is described as above.
The target in assay [14] is DIP-α A11T {A82T}, extracellular region (Drosophila melanogaster) (UniProt Q9W4R3). The assay is described as above.
Assay [15] deals with DIP-α K10Q {K81Q}, extracellular region (Drosophila melanogaster) (UniProt Q9W4R3). Described as above.
In assay [16] the target is DIP-α K10Q S32D {K81Q S133D}, extracellular region (Drosophila melanogaster) (UniProt Q9W4R3). The description is as above.
For assay [17], the target named is DIP-α G4L {G74L}, extracellular region (Drosophila melanogaster) (UniProt Q9W4R3). The description is as above.
Assay [18] addresses DIP-α G4A {G74A}, extracellular region (Drosophila melanogaster) (UniProt Q9W4R3). The assay is described as above.
The target in assay [19] is DIP-α K10Q G4S {K81Q G74S}, extracellular region (Drosophila melanogaster) (UniProt Q9W4R3). Described as above.
Assay [20] deals with DIP-α (Dpr Interacting Protein alpha), extracellular region (Drosophila melanogaster) (UniProt Q9W4R3). The assay is described as above. The source holds these as a separate data set.
The target of assay [21] is DIP-α K10Q G4S {K81Q G74S}, extracellular region (Drosophila melanogaster) (UniProt Q9W4R3). Kind of assay: AUC; sedimentation equilibrium, 25 °C, 10 mM Bis-Tris pH 6.6, 150 mM NaCl, detection at 280 nm; global fit (HeteroAnalysis); dimer to monomers; mean of two independent measurements.

pKd: −log10 of the molar value. Several values for one entry are separate records, joined by “and”; a condition that tells them apart may be missing. Identical values can stand only once. Like-named read-outs stand apart in the source and are kept apart here.

By pKd is commonly meant the negative decadic logarithm of the Kd, by convention in mol/L. High values mean a low Kd, low ones a high Kd. The substance “Dpr10 V31K {V144K}, extracellular region (from UniProt M9PF17 1-362) (domain or fragment)” gave a pKd in [1] of 4.28.

In general, stoichiometry N refers to the number of molecules, sites or subunits per partner or assembly. For the substance “DIP-α K10Q S32D {K81Q S133D}, extracellular region (from UniProt Q9W4R3 1-554) (domain or fragment)”, in assay [2], the pKd is 4.19 and the stoichiometry N turned out to be 2. In the case of Dpr11 K31V,E29Q (domain or fragment), the pKd in assay [3] was 3.88. “Dpr11 K31V E29Q {K207V E205Q}, extracellular region (from UniProt Q8MRE6 1-360) (domain or fragment)”: the pKd in assay [4] and in assay [1] was < 3.52 each time. “DIP-α K10Q G4S, extracellular region (domain or fragment)”: the pKd in assay [5] is 4.28 and 4.39; in [5] (mean), 4.33.

“DIP-α K10Q S32D, extracellular region (domain or fragment)”: the pKd in [6] is 4.22 and 4.17; in [6] (mean), 4.19. In assay [7], Dpr6 (domain or fragment) showed a pKd of 5.70. With “Dpr10 V31K Q29E {V144K Q142E}, extracellular region (from UniProt M9PF17 1-362) (domain or fragment)”, the pKd in assay [1] was 4.15.

Regarding “DIP-α K10Q, extracellular region (domain or fragment)”, the pKd in assay [8] is 4.75 and 4.67; in [8] (mean) it was 4.71. Take “Dpr11 K31V E29Q G10L {K207V E205Q G157L}, extracellular region (from UniProt Q8MRE6 1-360) (domain or fragment)”: the pKd was 4.56 in assay [1] and 4.75 in assay [9]. In [10], “DIP-α K10Q {K81Q}, extracellular region (from UniProt Q9W4R3 1-554) (domain or fragment)” showed a pKd of 4.71 and a stoichiometry N of 2.

For the substance “Dpr6 (Defective proboscis extension response 6), extracellular region (from UniProt M9PC40 1-390) (domain or fragment)”, the pKd in [11] was 6.34; in assay [12], 4.10; in assay [13], 5.98; in assay [14], 5.00; in [15], 4.74; in assay [16], 4.58. Also, the pKd in [17] was 4.63; in assay [18], 5.96; in assay [19], 3.99. In [20], “Dpr10 Q26D {Q138D}, extracellular region (from UniProt M9PF17 1-362) (domain or fragment)” had a pKd of 4.71. Dpr11 K31V (domain or fragment) had a pKd in [3] of 4.64.

In assay [7], Dpr10 V31K Q29E (domain or fragment) came in with a fold increase of KD over the V31K single mutant of 2 fold. In turn, Dpr10 V31K (domain or fragment) came in with a fold increase of KD over wild-type Dpr10 in assay [7] of 10 fold. With “Dpr11 K31V {K207V}, extracellular region (from UniProt Q8MRE6 1-360) (domain or fragment)”, the pKd in assay [4] and in [1] was < 3.52 in each case. In [21], “DIP-α K10Q G4S {K81Q G74S}, extracellular region (from UniProt Q9W4R3 1-554) (domain or fragment)” showed a pKd of 4.33 and a stoichiometry N of 2.
